The values below are quoted from earlier work in publication doi:10.1101/2025.05.21.655333.

As usually defined, the pKa is the pH at which an ionisable group is half protonated.

In this data set the target is Lys287 (UniProt position 287, GGQGLKILIHV). The experiment in a line: kinetics. The note with it: The kcat/Km profile reports on free enzyme and free substrate.

For “L-6-hydroxynicotine oxidase (Pyridine-LHNO) (Paenarthrobacter nicotinovorans)”, the pKa was 9.7.
